B1: Transcriptional regulator ERG (Homo sapiens), P11308-1 (parent)
chain: MIQTVPDPAAHIKEALSVVSEDQSLFECAYGTPHLAKTEMTASSSSDYGQTSKMSPRVPQQDWLSQPPARVTIKMECNPSQVNGSRNSPDECSVAKGGKMVGSPDTVGMNYGSYMEEKHMPPPNMTTNERRVIVPADPTLWSTDHVRQWLEWAVKEYGLPDVNILLFQNIDGKELCKMTKDDFQRLTPSYNADILLSHLHYLRETPLPHLTSDDVDKALQNSPRLMHARNTDLPYEPPRRSAWTGHGHPTPQSKAAQPSPSTVPKTEDQRPQLDPYQILGPTSSRLANPGSGQIQLWQFLLELLSDSSNSSCITWEGTNGEFKMTDPDEVARRWGERKSKPNMNYDKLSRALRYYYDKNIMTKVHGKRYAYKFDFHGIAQALQPHPPESSLYKYPSDLPYMGSYHAHPQKMNFVAPHPPALPVTSSSFFAAPNPYWNSPTGGIYPNTRLPTSHMPSHLGTYY

Variants of: B1
Details: with prkdc_human PRKDC

Variant | effect of a mutation on the interaction
Y356A | disrupting interaction
